Experiment: yeast display, Sf9 membrane polyspecificity reagent, FACS + sequencing; frameworks hold sequencing errors
In short: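 Galactose-induced (36–48 hours) yeast carrying a synthetic nanobody display library were exposed to 10% biotinylated, detergent-solubilized Sf9 membrane reagent at 4 °C for 1 hour. FACS followed streptavidin microbead enrichment, using low and high (top ~1%) gates for expression (anti-HA) and reagent binding (streptavidin). Colony PCR, MiSeq 2 × 250 sequencing and CDR-length filtering followed. Labels for polyreactivity reflect the gate of origin.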

## QVQLVESGGGLVQAGGSLRLSSAASGSIFGSNAMGWYRQAPGKERELVATITTSGGITYYADSVKGRFTISRDTAKNTVYLQMNSLKPEDTAVYYCAAAEGGGLVTYDYWGQGTQVTVSS
  polyreactivity (PSR sort gate): low polyreactivity

## QVQLVESGGGLVQAGGSLRLSCAASGRTFEGNAMGWYRQAPGKERELVAAISTSGGRTYYADSVKGRFTISRDNAKNTVYLQMNSLKPDDTAVYYCAVDHYSSYEYWGQGTQVTVSS
  polyreactivity (PSR sort gate): low polyreactivity

## QVELVVSGGGLVQAGGSLRLSCAAYGSIFLGNAMGWYRQAPGKEREFVAGIRGSAGTTSYADSVKGRFTISRDNAKNPGYLQMNSLKPEDTAVYYCAARPRHSDGYYYWGQGTEVTVSS
  polyreactivity (PSR sort gate): high polyreactivity

## QVQLVESGGGLVQAGGSLRLSCAASGITFQKNAMGWYSQAPGKERELVAGITWRGSTYYADSVKGRFTISRDNAKNTVYLQRNSLKPEDTAVYYCAADPFSWYRSVRGEYWGQGTQVTVSS
  polyreactivity (PSR sort gate): low polyreactivity

## QVQLVESGGGLVQAGGSLRLSCAASGTTFGYYAMGSYRQPPGKDREFVAAISSSGGSTYYPDSVKGRFTISRDNAKNTVYLQMNSLKPEDTAVYYCARVGFPGFYWGQGTEVTVSS
  polyreactivity (PSR sort gate): high polyreactivity

## QVQLVESGGGLVQAGGSLRLSCAASGRTFYRYAMGWYRQAPGKERELVAVITSGSRTKYADSVKGRFTISRDNAKNTVYLQMNSLKPEDTAVYYCAARGLALEGKSSGEYWGQGTQVTVSS
  polyreactivity (PSR sort gate): high polyreactivity

## QVQVVESGGGLVQAGGSLRLSCAASGRIFYQNAMGWYRPAPGKERELVADISSGGSTYYADSVKGRFTISRDNAKNTVYLQMNSLKPEDTAVYYCNTPSGPGTVGSYRRIWYGYWGQGTQVTVSS
  polyreactivity (PSR sort gate): low polyreactivity

## QVQLVESVGGLVQAGGSLRLSCAASGSIFVKNAMGWYRQAPGKEREFVAVISTGDSTHYADSVKGRFTISRDNAKNTVYLQMNSLKPEDTAVYYCAARYYSYGSSYGYWGQGTQVTVSS
  polyreactivity (PSR sort gate): high polyreactivity

## QVQLVESGGGLVQAGGSLRLSCAASGSIFGWNAMGWYRQAPGKERELVAAINWTGGTTYYADSVKGRFTISRDNEKNTVYLQMNSLKPEDTAVYYCAARLTYHVAGQMTRYYYWGQGTQVTVSS
  polyreactivity (PSR sort gate): low polyreactivity

## QVQLVESGGGLVQAGGSLRLSCAPSGYIIRQYAMGWYRQAPGKEREFVAAISQTGGSTYYADSVKGRFTISRDNAKNTVYLQMNSLKPEDTAVYYCAARYRGQRYRKLDYWGQGTQVTVSS
  polyreactivity (PSR sort gate): high polyreactivity

## QVQLVESGGGLVQAGGSLRLSCAASGSTFALNAMGWYRQAPGKERELVAAISGRGGSTYYADSVKGRFTISRDNAKNTVYLQMNSLKPEDTAVYYCAATSRVYVRGSYWKYGYWGQGTQVTVSS
  polyreactivity (PSR sort gate): high polyreactivity

## QVQLVESGGGLVKAGGSLRLSCAASGSIFQSNAMGWYRQAPGKERELVAAIRTSSGGGTYADSVKGRFTISRDNAKNTVYLQINSLKPEDTAVYDCNARKNNGGKWGYDYWGQGTQVTVSS
  polyreactivity (PSR sort gate): high polyreactivity

## QVQLVESGGGLVQAGGSLRLSCASSGFTFYYNAMGWYRQAPGQERELVASITRSGGRTYYSDSVKGRFTISRDNAKNTVYLQMNSLKPEDTAVYYCARRYPGGYYWGQGTHVTVSS
  polyreactivity (PSR sort gate): high polyreactivity

## QVQLVESVGGLVQAGGSLRLSCAASGRIFDSYTMGWYRQAPGKERELVAAISRGGGSTYYADSVKGRFTISRDNAKYTVYLQMNSLKPEDTAVYYCAASSYLNSRFKFDYWGQGTQVTVSS
  polyreactivity (PSR sort gate): low polyreactivity

## QVQLVESGGGLVQAGGSLRLSCAASGFILDTYGMGWYRQAPGKERELVAAISQSDVSTYYADSVKGRFTISRDNAKNTVYLQMNSLKQEDTAVYYCAADRGGLRWFWQVVYDYWGQGTQVTVSS
  polyreactivity (PSR sort gate): low polyreactivity

## QVQLVESGGGLVQAGGSLRLSCAASGSIFASNAMGCYRQAPGKERELVAAINSGDSTNYADSVKGRFTISRDNAKNTVYLQMNSLKPEDTAVYYCARGLEERYDYWGQGTQVTVSS
  polyreactivity (PSR sort gate): low polyreactivity

## QVQLVETGGGLVQAGGSLRLSCAASGFIFSTYAMGWSRQAPGKERELVAAISWSGGRTNYADSVKGRFTISRDHAKNTVYLQMNSLKPEDTAVYYCAVGGERGARIGSNHRGSRYDYWGQGTQVTVSS
  polyreactivity (PSR sort gate): high polyreactivity

## QVQLVESGGGLVQAGGSLRLSCAASGRTFPRYAMGWYRQAPGKERELVAGISWSGGRTYYADSVKGRFTISRDNAKNTVYLQMNSLKPEDTAVYYCAVVSKNLSYRTTFYYWGQGTQVTVSS
  polyreactivity (PSR sort gate): high polyreactivity

## QVQLVESGGGLVQAGGSLRLSCAASGRTFYDYAMGWYRQAPGKERELVAAITSGGSTNYADSVKGRFTISRDNAKNTVYLQMNSLKPEDTAGYYCAADDFYVWGFDMNYWGQGTQVTVSS
  polyreactivity (PSR sort gate): high polyreactivity

## QVQLVESGGGLVQAGGSLRLSCAASGLTFTTYAMGWYRPAPGKERELVASIRTGGSTNYADSVKGRFTISRDNAKNTVYLQMNSLKPEETAVYYCAAGRRIDKRYEYWGQGTQFTVSS
  polyreactivity (PSR sort gate): low polyreactivity

## QVQLVESGGGLVQAGGSLRLSCAASGFIFSHNAMGWYRQAPGKERELVAAIDYIDGSTYYADSVKGRFTISRDNAKYTVYLQMNSLIPEDTAVYDCAADGLFYWWHYGYWGQGSQVTVSS
  polyreactivity (PSR sort gate): low polyreactivity

## QVQLVESGGGLVQAGGSLRLSCAASGFIFPGHAMGWYRQAPGKERELVAAISTSGGSTYYADSVKGRFTISRDNAKNTVYLQMNSLKPEDTAVYYCATKRPYVDDYGYWGQGTQVTVSS
  polyreactivity (PSR sort gate): high polyreactivity

## QVQLVESGGGLVQAGGSLRLSCAASGSIFSQYAMGWYRQAPGKERELVAAITSSGGRTYYADSVKGRFTISRDNAKNTVYLQMNSLKPEDTAVYYCAARPYSKRHEYWGQGTQVTVSS
  polyreactivity (PSR sort gate): high polyreactivity

## QVQLVESGGGLVQAGGSLRLSCAASGFTFYLYGMGGYRQAPGKERELVAAIRSGGSTNYADSVKGRFSISRDNAKNTVYLQMNSLKPEDTAVYYCATDIHSVHNNRDKPDYDYWGQGSQVTVSS
  polyreactivity (PSR sort gate): low polyreactivity

## QVQLVESGGGLVQAGGSLRLSCAASGRILSSYAMGWYRQAPGKERELVARISYSGGRTYYADSVKGRFTISRDNAKNTVYLQMNSLKPEDTAVYYCAAVSRVHFSYIYDYWGQGTQVTVSS
  polyreactivity (PSR sort gate): high polyreactivity

## QVQLVESGGGLVQAGGSLRLSCAASGFTFKYYAMGWYRQAPGKERELVAAISSGATTYYADSVKGRFTISRDNAKNTVYLQMNSLKPEDTAVYYCNANRFRRYDWGQGTLVTVSS
  polyreactivity (PSR sort gate): high polyreactivity

## QVQLVESGGGLVQAGGILRLSCAASGRTFGLYAMGRYRQAPGKERELVAAITRSDGGTNYADSVKGRFTISRDNAKNTVYLQMNSLKAEDTAVYYCAVDLGYVSHVSWYAYEYWGQGTQVTVSS
  polyreactivity (PSR sort gate): low polyreactivity

## QVQLVESGGGLVQAGGSLRLSCAASGRIFWYYAMGWYRQAPGKERELVARITSGGRTYYADSVKGRFTISRDNAKNTVYLQMNSLKPEDTAVYYCARRGRKAYGYWGQGTQVTVSS
  polyreactivity (PSR sort gate): high polyreactivity

## QVQLEETGGRLVQAGARLRLSCDASGYIFFFYAMGWYRHAPGKERELDASITYRGGSTYYADSVKGRFTLSRDYAKNTVYLQINSLKPEDTAVYYCIVDGGGPLGPHGFPFDYWGQGTQVTVSS
  polyreactivity (PSR sort gate): low polyreactivity

## QVQLVESGGGLVQAGGSLRLSCAASGITFEGYAMGGYRQAPGKERELVAAIRSSGTSTYYADSVKGRFTISRDNAKNTVYLQMNSLKPEDTAVYYCNRARSSSLYDYWGQGTQVTVSS
  polyreactivity (PSR sort gate): low polyreactivity

## QVQLVESGGGLVQAGGSLRLSCAASGSIFLVYAMGWYRQAPGKERELVAAIDWSDTDTYYADSVKGRFTISRDNAKNTFYLQMNSLKPEDTAVYYCAADHVGVDFEYWGQGTQVTVSS
  polyreactivity (PSR sort gate): low polyreactivity

## QVQLVESGGGLVQAGGSLRLSCAASGFTFGVYAKGWYRQEPGKEREMVAAISSRRGSTYYADSVKGRFTISRDNAKNTVYLQMNSLKPEDTAVYYCAKRLGNTVGKEDYWGQGTQVTVTS
  polyreactivity (PSR sort gate): low polyreactivity

## QVQLVESGGGLVQAGGSLRLSCAASGSIFSTYARGWYRQAPGKERELVATITSGGNTNYADSVKGRYTISRDNAKNTVYLQMNSLKPEDTAVDYSNKEWDGDGYTDDWDYDYWGQGTQVTVSS
  polyreactivity (PSR sort gate): low polyreactivity

## QVQLVESGGGLVQAGGSLRLSCAASGSTFRQYAMGWYRQAPGKERELVAGISYRGGRTYYADSVKGRFTISRDNAKNTVYLQMNSLKPEDTAVYYCNALRHYRDISVDGDDYWGQGTQVTVSS
  polyreactivity (PSR sort gate): high polyreactivity

## QVQLVESGGGLVQAGGSLRLSCAASGCTIWSSAMGWYRQAPGKERELVASITWSGGSTYADSVKGRFTISRDNAKNTVYLQMNSLKPEDTAVYYCARESTLTYYSDDFDYWGQGTQVTVSS
  polyreactivity (PSR sort gate): low polyreactivity

## QVQLVESGGGLVQAGGSLRLSCAATGFIFTDNVMGWYRQAPGKERELVAAISRRGGSTYYADSVKGRFTISRDNAKNTVYLQMNSLKPEDTAVYYCNVARQSYLLDYWGQGSQVTVSS
  polyreactivity (PSR sort gate): high polyreactivity

## QVQLVESGGGLVQAGGSLRLSCAASGFTFGDYAMGWYRQAPGKEWELVAAISWSAGSTYYADSVKGRFTISRDNAKNTVYVQMNSLKPEDTAVYYCAADDSATIEDDYWGQGTQVTVSS
  polyreactivity (PSR sort gate): high polyreactivity

## QVQLVESGGGLVQAGGSLRLSCAASGFIFVRYAMGWYRQAPGKERELVAAISSSGGTTNYADSVKGRFTISRDNAKNTVYLQMNSLKPEDTAVYYCAAYVYQTPHSLHIYDYWGQGTQVTVSS
  polyreactivity (PSR sort gate): low polyreactivity

## QVQLVESGGGLVQAGGSLRLSCAASGSTFYGYAQGWYRQAPRKERELVAAISRTGTTNYADSVKGRFTISRDNAKNTVYLQMNSLKPEVTAVYYCNVRGYEVWYPLAYDYWGQGTQVTVSS
  polyreactivity (PSR sort gate): high polyreactivity

## QVQLVESGGGLVQAGGSLRLSCAASGSIFVTYAMGWYRQAPGKERELVASISWRGVSTRYADSVKGRFTISRDNAKNTVYLQMNSLKPEDTAVYYCAARVTSHMYYWGQGTQVTVSS
  polyreactivity (PSR sort gate): high polyreactivity

## QVQLVESGGGLVQAGGSLRLSCAASGRTFPYYDIGWYRKAPGKERELVAAITSGGTTNYADSVKGRFTISRDNAKNTVYLQMNSLKPEDTAVYNCAAGSPWYYFSSYGYWGQGTQVTVSS
  polyreactivity (PSR sort gate): low polyreactivity

## QVQLVESGGGLVQAGGSLRLSCAASGSNFVTYAMGWSRQAPGKERELVAAISSSGTSTYYADSVKGRFTISRDNAKNTVYLQMNSLKPEDTAVYYCAAYLRGYDYGYWGQGTQVTVSS
  polyreactivity (PSR sort gate): high polyreactivity

## QVQLVESGGGLVQAGGSLRLSCAASGRTFYRNAMGWYRQAPGKERELVAAITWSGVSTYYADSVKGRFTISRDNAKNTVYLQMNSLKPEDTAVYYCARGRVLRNGHYFQLRNYDYWGQGTQVTVSS
  polyreactivity (PSR sort gate): high polyreactivity
